Results as given in paper PMC10022779, “Purification and biochemical analysis of native AMPA receptors from three different mammalian species” (PLOS ONE, 2023).

Columns and labels:
Conditions in all cases: one partner purified
[1] = molecular target: T1, GluA2 in native GluA2-containing AMPARs from rat brain (Rattus norvegicus, Sprague Dawley, UniProt P19491); assay: SEC; fluorescence-size exclusion chromatography (FSEC), GFP fluorescence; 15F1-GFP Fab added to membranes solubilized in 2% digitonin (w/v), equal masses of membranes from each mammal
T1 construct: AMPA receptor subunit GluA2, rat, endogenous in brain; also called native rat AMPARs; source: endogenous, rat (Sprague Dawley) brain membranes, solubilized in 2% digitonin
T1 sequence (P19491 22-883): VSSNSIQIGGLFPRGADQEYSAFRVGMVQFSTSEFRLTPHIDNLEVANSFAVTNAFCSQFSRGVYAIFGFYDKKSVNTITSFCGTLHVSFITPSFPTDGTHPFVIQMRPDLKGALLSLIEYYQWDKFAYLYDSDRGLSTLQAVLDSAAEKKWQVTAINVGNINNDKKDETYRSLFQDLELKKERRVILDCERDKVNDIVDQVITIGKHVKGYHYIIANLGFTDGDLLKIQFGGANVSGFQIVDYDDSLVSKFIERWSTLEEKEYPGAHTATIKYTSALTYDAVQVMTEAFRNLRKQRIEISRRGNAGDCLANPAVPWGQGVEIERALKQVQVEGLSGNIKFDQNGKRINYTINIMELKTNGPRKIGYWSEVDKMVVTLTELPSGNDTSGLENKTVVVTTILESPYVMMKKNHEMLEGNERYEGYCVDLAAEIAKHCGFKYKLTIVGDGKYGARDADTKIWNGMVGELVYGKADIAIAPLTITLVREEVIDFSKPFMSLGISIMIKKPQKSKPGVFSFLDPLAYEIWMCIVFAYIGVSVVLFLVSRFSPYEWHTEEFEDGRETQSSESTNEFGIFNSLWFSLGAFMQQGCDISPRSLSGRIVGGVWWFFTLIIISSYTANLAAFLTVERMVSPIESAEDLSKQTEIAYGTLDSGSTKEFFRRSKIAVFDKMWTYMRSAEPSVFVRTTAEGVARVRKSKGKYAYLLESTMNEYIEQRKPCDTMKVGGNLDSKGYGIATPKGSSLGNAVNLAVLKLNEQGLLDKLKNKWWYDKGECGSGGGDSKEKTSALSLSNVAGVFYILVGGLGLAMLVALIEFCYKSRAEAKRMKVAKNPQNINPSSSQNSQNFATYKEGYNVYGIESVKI

[2] = molecular target: T2, GluA2 in native GluA2-containing AMPARs from pig brain (Sus scrofa (pig), endogenous brain, UniProt A0A287AEG6); assay: as above
T2 construct: AMPA receptor subunit GluA2, pig, endogenous in brain; also called native pig AMPARs; source: endogenous, pig brain membranes, solubilized in 2% digitonin

[3] = molecular target: T3, GluA2 in native GluA2-containing AMPARs from mouse brain (Mus musculus, C57BL/6, UniProt P23819); assay: pull-down; immunoaffinity purification: 15F1-GFP incubated with digitonin-solubilized membrane supernatant (on ice, 20 min), 15F1-GFP-bound AMPARs held on Streptactin resin by the twin-Strep II tag, eluted with 8 mM d-desthiobiotin, then SEC (Superose 6) in TBS, 1 uM (R,R)-2b, 1 uM MPQX, 0.075% digitonin; read out by FSEC and silver-stained SDS-PAGE
T3 construct: AMPA receptor subunit GluA2, mouse, endogenous in brain; also called native mouse AMPARs; source: endogenous, mouse (C57BL/6) brain membranes, solubilized in 2% digitonin
T3 sequence (P23819 25-883): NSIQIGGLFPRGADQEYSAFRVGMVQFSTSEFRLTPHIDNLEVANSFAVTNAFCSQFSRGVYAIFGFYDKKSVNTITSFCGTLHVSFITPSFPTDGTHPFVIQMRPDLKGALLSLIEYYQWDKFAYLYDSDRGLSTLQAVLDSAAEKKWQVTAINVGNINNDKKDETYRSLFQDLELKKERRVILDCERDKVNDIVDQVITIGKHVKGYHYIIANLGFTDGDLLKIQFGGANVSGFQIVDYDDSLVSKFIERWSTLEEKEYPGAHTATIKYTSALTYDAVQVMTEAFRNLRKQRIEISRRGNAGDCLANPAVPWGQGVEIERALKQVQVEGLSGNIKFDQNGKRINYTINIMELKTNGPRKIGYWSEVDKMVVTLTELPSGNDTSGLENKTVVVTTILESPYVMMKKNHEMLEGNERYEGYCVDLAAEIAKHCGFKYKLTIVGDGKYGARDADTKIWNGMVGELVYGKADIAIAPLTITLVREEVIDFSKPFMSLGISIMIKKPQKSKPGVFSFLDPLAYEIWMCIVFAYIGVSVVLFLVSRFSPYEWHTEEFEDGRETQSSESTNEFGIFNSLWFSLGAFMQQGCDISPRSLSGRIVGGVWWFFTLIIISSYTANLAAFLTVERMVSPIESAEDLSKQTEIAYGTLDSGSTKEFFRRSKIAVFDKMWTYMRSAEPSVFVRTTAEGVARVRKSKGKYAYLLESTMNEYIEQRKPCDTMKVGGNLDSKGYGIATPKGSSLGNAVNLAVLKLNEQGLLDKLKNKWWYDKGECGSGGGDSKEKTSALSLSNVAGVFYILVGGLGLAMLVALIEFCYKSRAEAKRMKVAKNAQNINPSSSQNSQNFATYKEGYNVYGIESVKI

Measured: binding result

B1: 15F1-GFP Fab (Fab, V domains shown)
VH: QAQLKESGPGLVAPSQSLSITCTVSGFSLTNYGVHWVRQPPGKGLEWLGVIWAGGSTNYNSALMSRVSISKDNSKSQVFLKMNSLQTDDTVMYYCAREDYDYDWHFDVWGAGTTVTVSS
VL: EIQMTQTTSSLSASLGDRVTISCRASQDISNYLSWYQQKPDGTVKLLIYYTSRLHSGVPSRFSGSGSGIDYSLTINNLEQEDFATYFCQQGNTLPLTFGAGTKLELK
notes: Fab domain of the heavy chain of the 15F1 monoclonal antibody; Fab domain of the light chain of the 15F1 monoclonal antibody; On the heavy chain eGFP is followed by the twin-Strep II tag; also called 15F1 Fab; anti-GluA2 antibody fragment; not shown: eGFP, C-terminal, kept; twin-Strep II, C-terminal, kept
binds: [1] | [2] | [3]
